Numbered stars: 1 amine (or outer) side, 2 acyl side, 3 side chain; on linkers, the order of the positions; unused ones are H or OH. Bridge positions count the residues as written; N and C are the ends. Side chains are listed from the residue outwards. Ends that are not written are not given here. * marks the point of attachment. C20 diacid = O=C(O)CCCCCCCCCCCCCCCCCCC(=O)*; γGlu = O=C(O)[C@H](CCC(=O)[*:2])N[*:1]
T1: human amylin receptor (amylin 3(a) receptor: human calcitonin receptor with RAMP-3) (human, UniProt P30988 25-474; O60896 24-148)
T1 construct: whole, on cells; Assay used cell membranes of the Amylin 3(a)/CRE-luc BHK cells, not intact cells; also called hAmylin-R; hAmylinR
T1 sequence (looked up) 1: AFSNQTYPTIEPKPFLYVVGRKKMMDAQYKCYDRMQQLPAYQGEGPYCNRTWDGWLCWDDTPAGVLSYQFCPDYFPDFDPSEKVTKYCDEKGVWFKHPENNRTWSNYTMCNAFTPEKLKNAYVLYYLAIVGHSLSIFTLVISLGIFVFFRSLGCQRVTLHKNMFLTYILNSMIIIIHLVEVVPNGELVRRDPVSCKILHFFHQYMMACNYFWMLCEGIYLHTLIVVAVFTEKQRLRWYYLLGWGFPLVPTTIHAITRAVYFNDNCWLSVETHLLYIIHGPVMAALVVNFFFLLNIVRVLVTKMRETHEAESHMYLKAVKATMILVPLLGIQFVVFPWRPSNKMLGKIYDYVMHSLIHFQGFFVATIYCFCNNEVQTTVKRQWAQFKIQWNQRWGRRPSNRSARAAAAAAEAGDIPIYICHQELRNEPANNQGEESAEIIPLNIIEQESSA
T1 sequence (looked up) 2: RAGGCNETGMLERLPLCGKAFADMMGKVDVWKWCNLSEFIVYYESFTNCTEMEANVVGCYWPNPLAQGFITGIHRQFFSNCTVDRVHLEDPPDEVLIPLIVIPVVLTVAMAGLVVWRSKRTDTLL

T2: human calcitonin receptor (human, UniProt P30988 25-474)
T2 construct: whole, on cells; Assay used cell membranes, not intact cells; also called hCTR; hCT
T2 sequence (looked up): T1 sequence (looked up) 1

B1: N^ε1-[(4S)-4-carboxy-4-(19-carboxynonadecanoylamino)butanoyl]-[Glu14,Arg17,Pro21,Pro27,His35]-h-amylin (peptide)
peptide: K([γGlu-C20 diacid])CNTATCATQRLAEFLRHSSPNFGAIPSSTNVGSHTY-NH2
modifications: disulfide 2-7; N-terminus assumed
SMILES: CC[C@H](C)[C@H](NC(=O)[C@H](C)NC(=O)CNC(=O)[C@H](Cc1ccccc1)NC(=O)[C@H](CC(N)=O)NC(=O)[C@@H]1CCCN1C(=O)[C@H](CO)NC(=O)[C@H](CO)NC(=O)[C@H](Cc1c[nH]cn1)NC(=O)[C@H](CCCNC(=N)N)NC(=O)[C@H](CC(C)C)NC(=O)[C@H](Cc1ccccc1)NC(=O)[C@H](CCC(=O)O)NC(=O)[C@H](C)NC(=O)[C@H](CC(C)C)NC(=O)[C@H](CCCNC(=N)N)NC(=O)[C@H](CCC(N)=O)NC(=O)[C@@H](NC(=O)[C@H](C)NC(=O)[C@@H]1CSSC[C@H](NC(=O)[C@@H](N)CCCCNC(=O)CC[C@H](NC(=O)CCCCCCCCCCCCCCCCCCC(=O)O)C(=O)O)C(=O)N[C@@H](CC(N)=O)C(=O)N[C@@H]([C@@H](C)O)C(=O)N[C@@H](C)C(=O)N[C@@H]([C@@H](C)O)C(=O)N1)[C@@H](C)O)C(=O)N1CCC[C@H]1C(=O)N[C@@H](CO)C(=O)N[C@@H](CO)C(=O)N[C@H](C(=O)N[C@@H](CC(N)=O)C(=O)N[C@H](C(=O)NCC(=O)N[C@@H](CO)C(=O)N[C@@H](Cc1c[nH]cn1)C(=O)N[C@H](C(=O)N[C@@H](Cc1ccc(O)cc1)C(N)=O)[C@@H](C)O)C(C)C)[C@@H](C)O
B2: N^ε1-[(4S)-4-carboxy-4-(19-carboxynonadecanoylamino)butanoyl]-[Glu14,Arg17,Pro21,Pro27,Pro34,Arg35]-h-amylin (peptide)
peptide: K([γGlu-C20 diacid])CNTATCATQRLAEFLRHSSPNFGAIPSSTNVGPRTY-NH2
modifications: disulfide 2-7; N-terminus assumed
SMILES: CC[C@H](C)[C@H](NC(=O)[C@H](C)NC(=O)CNC(=O)[C@H](Cc1ccccc1)NC(=O)[C@H](CC(N)=O)NC(=O)[C@@H]1CCCN1C(=O)[C@H](CO)NC(=O)[C@H](CO)NC(=O)[C@H](Cc1c[nH]cn1)NC(=O)[C@H](CCCNC(=N)N)NC(=O)[C@H](CC(C)C)NC(=O)[C@H](Cc1ccccc1)NC(=O)[C@H](CCC(=O)O)NC(=O)[C@H](C)NC(=O)[C@H](CC(C)C)NC(=O)[C@H](CCCNC(=N)N)NC(=O)[C@H](CCC(N)=O)NC(=O)[C@@H](NC(=O)[C@H](C)NC(=O)[C@@H]1CSSC[C@H](NC(=O)[C@@H](N)CCCCNC(=O)CC[C@H](NC(=O)CCCCCCCCCCCCCCCCCCC(=O)O)C(=O)O)C(=O)N[C@@H](CC(N)=O)C(=O)N[C@@H]([C@@H](C)O)C(=O)N[C@@H](C)C(=O)N[C@@H]([C@@H](C)O)C(=O)N1)[C@@H](C)O)C(=O)N1CCC[C@H]1C(=O)N[C@@H](CO)C(=O)N[C@@H](CO)C(=O)N[C@H](C(=O)N[C@@H](CC(N)=O)C(=O)N[C@H](C(=O)NCC(=O)N1CCC[C@H]1C(=O)N[C@@H](CCCNC(=N)N)C(=O)N[C@H](C(=O)N[C@@H](Cc1ccc(O)cc1)C(N)=O)[C@@H](C)O)C(C)C)[C@@H](C)O
B3: N^ε1-[(4S)-4-carboxy-4-(19-carboxynonadecanoylamino)butanoyl]-[Glu14,Arg17,Pro21,Pro27,Pro34,His35]-h-amylin (peptide)
peptide: K([γGlu-C20 diacid])CNTATCATQRLAEFLRHSSPNFGAIPSSTNVGPHTY-NH2
modifications: disulfide 2-7
B4: N^ε1-[(4S)-4-carboxy-4-(19-carboxynonadecanoylamino)butanoyl]-[Glu14,Arg17,Pro21,Pro27,Pro34,Glu35]-h-amylin (peptide)
peptide: K([γGlu-C20 diacid])CNTATCATQRLAEFLRHSSPNFGAIPSSTNVGPETY-NH2
modifications: disulfide 2-7; N-terminus assumed
SMILES: CC[C@H](C)[C@H](NC(=O)[C@H](C)NC(=O)CNC(=O)[C@H](Cc1ccccc1)NC(=O)[C@H](CC(N)=O)NC(=O)[C@@H]1CCCN1C(=O)[C@H](CO)NC(=O)[C@H](CO)NC(=O)[C@H](Cc1c[nH]cn1)NC(=O)[C@H](CCCNC(=N)N)NC(=O)[C@H](CC(C)C)NC(=O)[C@H](Cc1ccccc1)NC(=O)[C@H](CCC(=O)O)NC(=O)[C@H](C)NC(=O)[C@H](CC(C)C)NC(=O)[C@H](CCCNC(=N)N)NC(=O)[C@H](CCC(N)=O)NC(=O)[C@@H](NC(=O)[C@H](C)NC(=O)[C@@H]1CSSC[C@H](NC(=O)[C@@H](N)CCCCNC(=O)CC[C@H](NC(=O)CCCCCCCCCCCCCCCCCCC(=O)O)C(=O)O)C(=O)N[C@@H](CC(N)=O)C(=O)N[C@@H]([C@@H](C)O)C(=O)N[C@@H](C)C(=O)N[C@@H]([C@@H](C)O)C(=O)N1)[C@@H](C)O)C(=O)N1CCC[C@H]1C(=O)N[C@@H](CO)C(=O)N[C@@H](CO)C(=O)N[C@H](C(=O)N[C@@H](CC(N)=O)C(=O)N[C@H](C(=O)NCC(=O)N1CCC[C@H]1C(=O)N[C@@H](CCC(=O)O)C(=O)N[C@H](C(=O)N[C@@H](Cc1ccc(O)cc1)C(N)=O)[C@@H](C)O)C(C)C)[C@@H](C)O
B5: N^ε1-[(4S)-4-carboxy-4-(19-carboxynonadecanoylamino)butanoyl]-[His14,Arg17,Pro21,Pro27,Arg34]-h-amylin (peptide)
peptide: K([γGlu-C20 diacid])CNTATCATQRLAHFLRHSSPNFGAIPSSTNVGRNTY-NH2
modifications: disulfide 2-7; N-terminus assumed
SMILES: CC[C@H](C)[C@H](NC(=O)[C@H](C)NC(=O)CNC(=O)[C@H](Cc1ccccc1)NC(=O)[C@H](CC(N)=O)NC(=O)[C@@H]1CCCN1C(=O)[C@H](CO)NC(=O)[C@H](CO)NC(=O)[C@H](Cc1c[nH]cn1)NC(=O)[C@H](CCCNC(=N)N)NC(=O)[C@H](CC(C)C)NC(=O)[C@H](Cc1ccccc1)NC(=O)[C@H](Cc1c[nH]cn1)NC(=O)[C@H](C)NC(=O)[C@H](CC(C)C)NC(=O)[C@H](CCCNC(=N)N)NC(=O)[C@H](CCC(N)=O)NC(=O)[C@@H](NC(=O)[C@H](C)NC(=O)[C@@H]1CSSC[C@H](NC(=O)[C@@H](N)CCCCNC(=O)CC[C@H](NC(=O)CCCCCCCCCCCCCCCCCCC(=O)O)C(=O)O)C(=O)N[C@@H](CC(N)=O)C(=O)N[C@@H]([C@@H](C)O)C(=O)N[C@@H](C)C(=O)N[C@@H]([C@@H](C)O)C(=O)N1)[C@@H](C)O)C(=O)N1CCC[C@H]1C(=O)N[C@@H](CO)C(=O)N[C@@H](CO)C(=O)N[C@H](C(=O)N[C@@H](CC(N)=O)C(=O)N[C@H](C(=O)NCC(=O)N[C@@H](CCCNC(=N)N)C(=O)N[C@@H](CC(N)=O)C(=O)N[C@H](C(=O)N[C@@H](Cc1ccc(O)cc1)C(N)=O)[C@@H](C)O)C(C)C)[C@@H](C)O
notes: also called compound 85
B6: N^ε1-[(4S)-4-carboxy-4-(19-carboxynonadecanoylamino)butanoyl]-[His14,Arg17,Pro21,Pro27,His34]-h-amylin (peptide)
peptide: K([γGlu-C20 diacid])CNTATCATQRLAHFLRHSSPNFGAIPSSTNVGHNTY-NH2
modifications: disulfide 2-7; N-terminus assumed
SMILES: CC[C@H](C)[C@H](NC(=O)[C@H](C)NC(=O)CNC(=O)[C@H](Cc1ccccc1)NC(=O)[C@H](CC(N)=O)NC(=O)[C@@H]1CCCN1C(=O)[C@H](CO)NC(=O)[C@H](CO)NC(=O)[C@H](Cc1c[nH]cn1)NC(=O)[C@H](CCCNC(=N)N)NC(=O)[C@H](CC(C)C)NC(=O)[C@H](Cc1ccccc1)NC(=O)[C@H](Cc1c[nH]cn1)NC(=O)[C@H](C)NC(=O)[C@H](CC(C)C)NC(=O)[C@H](CCCNC(=N)N)NC(=O)[C@H](CCC(N)=O)NC(=O)[C@@H](NC(=O)[C@H](C)NC(=O)[C@@H]1CSSC[C@H](NC(=O)[C@@H](N)CCCCNC(=O)CC[C@H](NC(=O)CCCCCCCCCCCCCCCCCCC(=O)O)C(=O)O)C(=O)N[C@@H](CC(N)=O)C(=O)N[C@@H]([C@@H](C)O)C(=O)N[C@@H](C)C(=O)N[C@@H]([C@@H](C)O)C(=O)N1)[C@@H](C)O)C(=O)N1CCC[C@H]1C(=O)N[C@@H](CO)C(=O)N[C@@H](CO)C(=O)N[C@H](C(=O)N[C@@H](CC(N)=O)C(=O)N[C@H](C(=O)NCC(=O)N[C@@H](Cc1c[nH]cn1)C(=O)N[C@@H](CC(N)=O)C(=O)N[C@H](C(=O)N[C@@H](Cc1ccc(O)cc1)C(N)=O)[C@@H](C)O)C(C)C)[C@@H](C)O
notes: also called compound 81

Target: T1, human amylin receptor (amylin 3(a) …)
Experiment: SPA competition with 125I-rat amylin on membranes of BHK cells with human calcitonin receptor and RAMP-3 (Assay V)
How it was run: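 Cell membranes were prepared by homogenisation in Na-HEPES/EDTA buffer, pH 7.4, and stored at −80° C. They were then coupled to SPA beads at 35 ng/μL final and exposed to compounds in assay buffer containing CaCl2, MgCl₂, OA and Tween20. After 120 min at 25° C, plates were counted and IC₅₀ derived.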

Row | IC50 [nM] | Binder
1 | 0.992 | B1
2 | 0.163 | B2
3 | 0.179 | B3
4 | 0.14 | B4
5 | 0.876 | B5
6 | 0.271 | B6

Target: T2, human calcitonin receptor
Experiment: SPA competition with 125I-calcitonin on membranes of BHK cells with human calcitonin receptor (Assay VII)
How it was run: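 BHK hCTR membranes 35 ng/μL + SPA beads 0.05 mg/well; buffer 50 mM Hepes pH 7.4, 1 mM CaCl2, 5 mM MgCl₂, 0.1% OA, 0.02% Tween20. 120 min, 25° C., shaking. Scintillation count; IC50 by one-site binding competition.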

Row | IC50 [nM] | Binder
7 | 26.1 | B1
8 | 6.3 | B2
9 | 3.8 | B3
10 | 1.86 | B4
11 | 80.4 | B5
12 | 23.6 | B6

Target: T2, human calcitonin receptor
Experiment: ratio IC50 hCTR / IC50 hAmylin-R (reference: human amylin receptor), SPA competition assays
How it was run: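 IC₅₀ values were derived by one-site competition analysis of SPA counts. Cell membranes (35 ng/μL) with SPA beads were incubated with test compounds for 120 min at 25° C in Hepes buffer, pH 7.4, containing CaCl2, MgCl₂, OA and Tween20.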

Row | Ratio hCT/hAmylin binding | Binder
13 | 26.4 | B1
14 | 38.6 | B2
15 | 21.2 | B3
16 | 13.3 | B4
17 | 91.8 | B5
18 | 87.2 | B6
